B1: RecA1 domain of DDX5 (1–303) (domain or fragment, human, UniProt P17844 1-303, looked up)
chain: MSGYSSDRDRGRDRGFGAPRFGGSRAGPLSGKKFGNPGEKLVKKKWNLDELPKFEKNFYQEHPDLARRTAQEVETYRRSKEITVRGHNCPKPVLNFYEANFPANVMDVIARQNFTEPTAIQAQGWPVALSGLDMVGVAQTGSGKTLSYLLPAIVHINHQPFLERGDGPICLVLAPTRELAQQVQQVAAEYCRACRLKSTCIYGGAPKGPQIRDLERGVEICIATPGRLIDFLECGKTNLRRTTYLVLDEADRMLDMGFEPQIRKIVDQIRPDRQTLMWSATWPKEVRQLAEDFLKDYIHINIG
notes: human DDX5, RecA1 domain with the N-terminal region, residues 1-303; probably as DDX5ΔC (pETM-13, His-tag), surmised; source: E. coli (cloned from the gene optimized for E. coli expression), purified
B2: labeled RecA1 domain of DDX5 (domain or fragment, human, UniProt P17844 1-303, looked up)
chain: B1 chain
modifications: fluorescent label (dye and site not stated)
notes: human DDX5, RecA1 domain with the N-terminal region, residues 1-303; also called fluorescent RecA1; source: E. coli (cloned from the gene optimized for E. coli expression), purified, then labeled
B3: full-length DDX5 (flDDX5) (enzyme, human, UniProt P17844 1-614, looked up)
chain: MSGYSSDRDRGRDRGFGAPRFGGSRAGPLSGKKFGNPGEKLVKKKWNLDELPKFEKNFYQEHPDLARRTAQEVETYRRSKEITVRGHNCPKPVLNFYEANFPANVMDVIARQNFTEPTAIQAQGWPVALSGLDMVGVAQTGSGKTLSYLLPAIVHINHQPFLERGDGPICLVLAPTRELAQQVQQVAAEYCRACRLKSTCIYGGAPKGPQIRDLERGVEICIATPGRLIDFLECGKTNLRRTTYLVLDEADRMLDMGFEPQIRKIVDQIRPDRQTLMWSATWPKEVRQLAEDFLKDYIHINIGALELSANHNILQIVDVCHDVEKDEKLIRLMEEIMSEKENKTIVFVETKRRCDELTRKMRRDGWPAMGIHGDKSQQERDWVLNEFKHGKAPILIATDVASRGLDVEDVKFVINYDYPNSSEDYIHRIGRTARSTKTGTAYTFFTPNNIKQVSDLISVLREANQAINPKLLQLVEDRGSGRSRGRGGMKDDRRDRYSAGKRGGFNTFRDRENYDRGYSSLLKRDFGAKTQNGVYSAANYTNGSFGSNFVSAGIQTSFRTGNPTGTYQNGYDSTQQYGSNVPNMHNGMNQQAYAYPATAAAPMIGYPMPTGYSQ
notes: human DEAD-box helicase DDX5, native full-length gene in pET30a, 614 residues (1-614); also called full-length DDX5 (1–614); unlabeled flDDX5

Columns and labels:
[1] = target: T1, SARS-CoV-2 Nsp13 helicase (SARS-CoV-2, UniProt P0DTD1 5325-5925); assay: MST; conditions: both partners purified
T1 construct: also called Nsp13 helicase of SARS-CoV-2

[2] = target: T1, SARS-CoV-2 Nsp13 helicase; conditions: both partners purified

| Binder | IC50 [1] [µM] | Kd [2] [µM] |
| --- | --- | --- |
| B1 | 16.2 | – |
| B2 | – | 9.1 ± 1.3 |
| B3 | 0.325 | – |

Source: publication PMC12355267, “Human Helicase DDX5 is Hijacked by SARS-CoV‑2 Nsp13 Helicase to Enhance RNA Unwinding” (ACS Omega, 2025)
